Source: publication PMC6748439, “Structural Insights into Curli CsgA Cross-β Fibril Architecture Inspire Repurposing of Anti-amyloid Compounds as Anti-biofilm Agents” (PLoS Pathogens, 2019)

Tests used:
[1] = biological target: CsgA, the major curli subunit (recombinant, C-terminal His6-tag) (Escherichia coli) (UniProt P28307); assay: SEC-MALS; freshly purified CsgA concentrated to 1.8 mg/ml, Superdex 75 10/300, miniDAWN TREOS; hexamer beside a majority of monomer
[2] = biological target: the molecule itself; assay: crystal structure; peptides with free (unmodified) termini, hanging drop, 293 K; micro-crystals, data collected at 100 K; LNIYQY and TASNSS crystals grown in a mixture with TAIVVQ of CsgB, which was not present in the crystals

“CsgA, the major curli subunit (recombinant, C-terminal His6-tag) (from UniProt P28307 21-151) (natural protein)” showed a stoichiometry N [1] of 6.

B1: CsgA segment 137VTQVGF142 (R5 repeat) (peptide)
peptide: VTQVGF
notes: Unmodified termini for crystallography; in the seeding assay Ac-VTQVGF-NH2, in the ThT assay with D-peptides capped at the C-terminus; source: synthetic peptide, bought: GL Biochem (Shanghai) Ltd
B1: binds [2].

B2: CsgA segment 47IYQYGG52 (R1 repeat) (peptide)
peptide: IYQYGG
notes: CsgA residues 47-52 (R1 repeat), numbered on UniProt P28307; Unmodified termini for crystallography; in the seeding assay Ac-IYQYGG-NH2; also called R1 segment 47IYQYGG52; source: synthetic peptide, bought: GL Biochem (Shanghai) Ltd
B2: binds [2].

B3: CsgA segment 129TASNSS134 (R4-R5 loop) (peptide)
peptide: TASNSS
notes: Unmodified termini for crystallography; source: synthetic peptide, bought: GL Biochem (Shanghai) Ltd
B3: binds [2].

B4: CsgA segment 45LNIYQY50 (R1 repeat) (peptide)
peptide: LNIYQY
notes: CsgA residues 45-50 (R1 repeat), numbered on UniProt P28307; Unmodified termini for crystallography; in the seeding assay Ac-LNIYQY-NH2, in the ThT assay with D-peptides capped at the C-terminus; also called R1 segment 45LNIYQY50; source: synthetic peptide, bought: GL Biochem (Shanghai) Ltd
B4: binds [2].
